Measurements published in article PMC11705696.

Target: AjFoxO (rAjFoxO) (Apostichopus japonicus, UniProt A0A2G8KG36 1-567)
Assay: EMSA

B1: AjATG4 WT probe (dsDNA)
DNA 1: TTTACGGCGCCTGTTTACGTCATCAACC
DNA 2: GGTTGATGACGTAAACAGGCGCCGTAAA
B1: binds.

B2: AjLC3 WT probe (dsDNA)
DNA 1: ATATCCTTTTGTCTGTTTTTCGGAAAG
DNA 2: CTTTCCGAAAAACAGACAAAAGGATAT
B2: binds.

B3: AjATG4 Mut probe (dsDNA)
DNA 1: TTTACGGCGCGACAAAACGTCATCAACC
DNA 2: GGTTGATGACGTTTTGTCGCGCCGTAAA
B3: no binding.

B4: AjLC3 Mut probe (dsDNA)
DNA 1: ATATCCTTTTGTGACACCTTCGGAAAG
DNA 2: CTTTCCGAAGGTGTCACAAAAGGATAT
B4: no binding.
